{
  "source": "patent US20230227538A1",
  "about": "(University of California, published 2023)",
  "binders": {"B1": {"name": "Nb11 (clone pNbCOV011A) (VHH)", "VHH": "HVQLVESGGGLVQAGGSLRLSCAVSGASAERVGWFRRAPGKEREFVAAIGANGGSTNYLDSVKGRFTISRDNAKNTVYLQMNSLKPQDTAVYYCAARNLETFDYTYWGRGTQVTVSS"}, "B2": {"name": "mNb6-tri (trivalent mNb6 with a 20 amino acid linker) (VHH)", "chain": "QVQLVESGGGLVQAGGSLRLSCAASGYIFGRNAMGWYRQAPGKERELVAGITRRGSITYYADSVKGRFTISRDNAKNTVYLQMNSLKPEDTAVYYCAADPASPAYGDYWGQGTQVTVSSGGGGSGGGGSGGGGSGGGGSQVQLVESGGGLVQAGGSLRLSCAASGYIFGRNAMGWYRQAPGKERELVAGITRRGSITYYADSVKGRFTISRDNAKNTVYLQMNSLKPEDTAVYYCAADPASPAYGDYWGQGTQVTVSSGGGGSGGGGSGGGGSGGGGSQVQLVESGGGLVQAGGSLRLSCAASGYIFGRNAMGWYRQAPGKERELVAGITRRGSITYYADSVKGRFTISRDNAKNTVYLQMNSLKPEDTAVYYCAADPASPAYGDYWGQGTQVTVSS"}, "B3": {"name": "Nb6-tri (trivalent Nb6 with two 20 amino acid linkers) (VHH)", "chain": "QVQLVESGGGLVQAGGSLRLSCAASGIIFGRNAMGWYRQAPGKERELVAGITRRGSITYYADSVKGRFTISRDNAKNTVYLQMNSLKPEDTAVYYCAADPASPAPGDYWGQGTQVTVSSGGGGSGGGGSGGGGSGGGGSQVQLVESGGGLVQAGGSLRLSCAASGIIFGRNAMGWYRQAPGKERELVAGITRRGSITYYADSVKGRFTISRDNAKNTVYLQMNSLKPEDTAVYYCAADPASPAPGDYWGQGTQVTVSSGGGGSGGGGSGGGGSGGGGSQVQLVESGGGLVQAGGSLRLSCAASGIIFGRNAMGWYRQAPGKERELVAGITRRGSITYYADSVKGRFTISRDNAKNTVYLQMNSLKPEDTAVYYCAADPASPAPGDYWGQGTQVTVSS"}, "B4": {"name": "Nb6 (AeroNab6, NbCOV6, clone pNbCOV006A) (VHH)", "VHH": "QVQLVESGGGLVQAGGSLRLSCAASGIIFGRNAMGWYRQAPGKERELVAGITRRGSITYYADSVKGRFTISRDNAKNTVYLQMNSLKPEDTAVYYCAADPASPAPGDYWGQGTQVTVSS", "notes": "also called AeroNab6 MASC monomer; Parent clone (NbCOV6)"}},
  "key": {"[1]": {"biological_target": "SARS-CoV-2 Spike protein on pseudotyped lentivirus (SARS-CoV-2, UniProt P0DTC2 14-1273)", "assay": "cell-based or functional assay"}, "[2]": {"biological_target": "SARS-CoV-2 Spike protein on pseudotyped lentivirus (SARS-CoV-2, UniProt P0DTC2 14-1273)", "assay": "cell-based or functional assay", "remark": "listed apart in the source"}, "[3]": {"biological_target": "T1, SARS-CoV-2 Spike receptor binding domain (RBD) (SARS-CoV-2, UniProt P0DTC2 319-541)"}, "[4]": {"biological_target": "T1, SARS-CoV-2 Spike receptor binding …", "assay": "SPR, biotinylated RBD on a CAP chip"}},
  "note": "“And” between values parts separate entries of the source, which are not always exact repeats. Equal entries are not always repeated.",
  "data": [
    {"binder": "B1", "values": [
      {"measurement": "IC50, inhibition of pseudovirus infection of ACE2 expressing HEK293T cells", "setting": "[1]", "result": 2400, "unit": "nM"}
    ]},
    {"binder": "B2", "values": [
      {"measurement": "IC50, pseudovirus infection assay", "setting": "[2]", "result": "120 pM and 5 ng/mL"}
    ]},
    {"binder": "B3", "values": [
      {"measurement": "IC50, inhibition of pseudovirus infection of ACE2 expressing HEK293T cells", "setting": "[2]", "result": 1.2, "unit": "nM"},
      {"measurement": "fold enhancement of inhibitory activity against Nb6, pseudovirus", "setting": "[2]", "result": 2000, "unit": "fold"}
    ]},
    {"binder": "B4", "values": [
      {"measurement": "EC50", "setting": "[3]", "result": 190, "unit": "nM"},
      {"measurement": "IC50, inhibition of pseudovirus infection of ACE2 expressing HEK293T cells", "setting": "[2]", "result": 2000, "unit": "nM"},
      {"measurement": "Kd", "setting": "[4]", "result": 41, "unit": "nM"}
    ]}
  ]
}
